Results reported in patent publication US20160024487A1 (Novo Nordisk, published 2016).
Where no end group is shown, it is not given here. The star is where a group is joined. Dnp = O=[N+]([O-])c1ccc(*)c([N+](=O)[O-])c1; 2Abz = Nc1ccccc1C(=O)O

Target: Human plasma purified α-thrombin (human, UniProt P00734 328-622)
Assay: cell-based or functional assay

Binder: K(Dnp)DFLAEGGGVRIVGGK(2Abz) [Lys(Dnp)-DFLAEGGGVRIVGG-Lys(Abz)]
- Fold-Improved (FpA): 1 fold
- Fold-Improved (PAR-1): 0.1 fold
